According to patent US20020106724A1 (RIKEN, published 2002):

Biological target: T1, GST alone (UniProt P08515 1-218 = GST)
T1 construct: Control protein in the pull-downs; also called purified GST; glutathione-S-transferase
Assay: pull-down of purified His6-tagged fragment with GST fusions, Western blot with anti-Xpress antibody
Method: A His₆-tagged recombinant protein comprising a C-terminal region of SYNCRIP (amino acids 401-561) was expressed in E. coli using pREST plasmid (Invitrogen). The recombinant protein was recovered from inclusion bodies by using a denaturing solution (6 M guanidine-HCl, 10 mM Tris-HCl (pH 8.0), 0.5 M NaCl, 1 mM β-mercapto-ethanol) and purified with ProBond resin. The denatured recombinant protein was refolded by dialysis against 10 mM Tris-HCl (pH 8.0), 10 mM β-mercaptoethanol, 0.1 M NaCl and 1 mM EDTA, with gradual decrease of urea concentration from 6 M to 0.001 M. The dialysate was centrifuged at 12,000 rpm at 4° C. for 20 min to remove the malfolded part and insoluble matter. After aliquots were incubated with various GST-fusion proteins with one of the Syt-II C2 domains, bound proteins were recovered and subjected to Western blotting using anti-Xpress antibody (Invitrogen).

T1 sequence (P08515 whole entry): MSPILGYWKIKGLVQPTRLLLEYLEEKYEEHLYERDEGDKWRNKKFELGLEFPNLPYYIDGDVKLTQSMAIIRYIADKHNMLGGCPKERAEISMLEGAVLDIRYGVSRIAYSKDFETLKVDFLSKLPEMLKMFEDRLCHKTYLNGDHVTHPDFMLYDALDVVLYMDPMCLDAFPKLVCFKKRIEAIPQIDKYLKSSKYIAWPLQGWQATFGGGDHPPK

binding result: no binding
B1: His6-tagged recombinant protein comprising a C-terminal region of SYNCRIP (amino acids 401-561) (other, not shown: small tags and cut ends)
chain: IEIVFAKPPDQKRKERKAQRQAAKNQMYDDYYYYGPPHMPPPTRGRGRGGRGGYGYPPDYYGYEDYYDYYGYDYHNYRGGYEDPYYGYEDFQVGARGRGGRGARGAAPSRGRGAAPPRGRAGYSQRGGPGSARGVRGARGGAQQQRGRGGKGVEAGPDLLQ
notes: also called C-terminal region of SYBCRIP
